Measured values: the DeepSol protein solubility set

experiment: soluble on expression in E. coli; label from the status in PepcDB or PDB records

Sequence | soluble on expression in E. coli
MSEGITDIEESQIQTNYDKVVYKFDDMELDENLLRGVFGYGFEEPSAIQQRAIMPIIEGHDVLAQAQSGTGKTGTFSIAALQRIDTSVKAPQALMLAPTRELALQIQKVVMALAFHMDIKVHACIGGTSFVEDAEGLRDAQIVVGTPGRVFDNIQRRRFRTDKIKMFILDEADEMLSSGFKEQIYQIFTLLPPTTQVVLLSATMPNDVLEVTTKFMRNPVRILVKKDELTLEGIKQFYVNVEEEEYKYECLTDLYDSISVTQAVIFCNTRRKVEELTTKLRNDKFTVSAIYSDLPQQERDTIMKEFRSGSSRILISTDLLARGIDVQQVSLVINYDLPANKENYIHRIGRGGRFGRKGVAINFVTNEDVGAMRELEKFYSTQIEELPSDIATLLN | soluble
MSEITLGKYLFERLKQVNVNTVFGLPGDFNLSLLDKIYEVEGMRWAGNANELNAAYAADGYARIKGMSCIITTFGVGELSALNGIAGSYAEHVGVLHVVGVPSISAQAKQLLLHHTLGNGDFTVFHRMSANISETTAMITDIATAPAEIDRCIRTTYVTQRPVYLGLPANLVDLNVPAKLLQTPIDMSLKPNDAESEKEVIDTILVLDKDAKNPVILADACCSRHDVKAETKKLIDLTQFPAFVTPMGKGSIDEQHPRYGGVYVGTLSKPEVKEAVESADLILSVGALLSDFNTGSFSYSYKTKNIVEFHSDHMKIRNATFPGVQMKFVLQKLLTTIADAAKGYKPVAVPARTPANAAVPASTPLKQEWMWNQLGNFLQEGDVVIAETGTSAFGINQTTFPNNTYGISQVLWGSIGFTTGATLGAAFAAEEIDPKKRVILFIGDGSLQLTVQEISTMIRWGLKPYLFVLNNDGYTIQKLIHGPKAQYNEIQGWDHLSLLPTFGAKDYETHRVATTGEWDKLTQDKSFNDNSKIRMIEVMLPVFDAPQNLVEQAKLTAATNAKQ | soluble
MSEIVIRHAETRDYEAIRQIHAQPEVYCNTLQVPHPSDHMWQERLADRPGIKQLVACIDGDVVGHLTIDVQQRPRRSHVADFGICVDSRWKNRGVASALMREMIEMCDNWLRVDRIELTVFVDNAPAIKVYKKFGFEIEGTGKKYALRNGEYVDAYYMARVK | not soluble
MSEKPLTKTDYLMRLRRCQTIDTLERVIEKNKYELSDNELAVFYSAADHRLAELTMNKLYDKIPSSVWKFIR | soluble
MSEKPQQEEQEKPQSRRNSFAVIEFTPEVLDRCLKQVEFYFSEFNFPYDRFLRTTAEKNDGWVPISTIATFNRMKKYRPVDKVIEALRSSEILEVSADGENVKRRVPLDLTAARNARIEQNQRTLAVMNFPHEDVEASQIPELQENLEAFFKKLGEINQVRLRRDHRNKKFNGTVLVEFKTIPECEAFLKSYSNDDESNEILSYEGKKLSVLTKKQFDLQREASKSKNFSGRSRSFNGHKKKNLPKFPKNKKKNGKEESKEDSSAIADDDEEHKE | soluble
MSELSQLSPQPLWDIFAKICSIPHPSYHEEALAAHILEWAKEKGIYAERDQVGNILLRKAATAGMENRKPVVLQAHLDMVPQKNNDTVHDFTTDPIQPYVDGEWLKARGTTLGADNGIGMASALAVLADPSVEHGPLEVLLTMTEEAGMDGAFGLQPNWLQGEILINTDSEEEGEIYMGCAGGIDFITRLPLVREVPPAGYQTLKLTIKGLKGGHSGGDIHLGLGNANKLLARFLFEQAEALDIRILDLNGGTLRNAIPREAFATLSLPAANVEQLKTLSQDYLAVLKNELSAVEKNLTVLVEANDSNEHPLTQDSRDRLLGLLNATPNGVIRMSDDVKGVVETSLNLGVVTMEDDHAEIICLIRSLIDSGKDAVVGTLTALGQLAGAKTSPKGGYPGWQPDAHSPVMALVRETYQKQFNKTPNIMVIHAGLECGLFKKPYPDMDMVSIGPTITGPHSPDEQVHIGSVDLYWKLLTELLKAIPPRALEHHHHHH | soluble
MSEMSLIMLAAGNSTRFNTKVKKQFLRLGNDPLWLYATKNLSSFYPFKKIVVTSSNITYMKKFTKNYEFIEGGDTRAESLKKALELIDSEFVMVSDVARVLVSKNLFDRLIENLDKADCITPALKVADTTLFDNEALQREKIKLIQTPQISKTKLLKKALDQNLEFTDDSTAIAAMGGKIWFVEGEENARKLTFKEDLKKLDLPTPSFEIFTGNGFDVHEFGENRPLLLAGVQIHPTMGLKAHSDGDVLAHSLTDAILGAAGLGDIGELYPDTDMKFKNANSMELLKQAYDKVREIGFELINIDICVMAQSPKLKDFKQAMQSNIAHTLDLDEFRINVKATTTEKLGFIGRKEGMAVLSSVNLKYFDWTRL | soluble
MSENSIRLTQYSHGAGCGCKISPKVLETILHSEQAKFVDPNLLVGNETRDDAAVYDLGNGTSVISTTDFFMPIVDNPFDFGRIAATNAISDIFAMGGKPIMAIAILGWPINKLSPEIAREVTEGGRYACRQAGIALAGGHSIDAPEPIFGLAVTGIVPTERVKKNSTAQAGCKLFLTKPLGIGVLTTAEKKSLLKPEHQGLATEVMCRMNIAGASFANIEGVKAMTDVTGFGLLGHLSEMCQGAGVQARVDYDAIPKLPGVEEYIKLGAVPGGTERNFASYGHLMGEMPREVRDLLCDPQTSGGLLLAVMPEAENEVKATAAEFGIELTAIGELVPARGGRAMVEIR | not soluble
MSEPKRLFFAIDLPDDARAQIIAWRAAHFASEDGRPVAAANLHLTLAFLGDVSSDKQRALAQLAGRIRQPGFTLHLDDAGQWLRSRVVWLGMRQPPRGLLQLANMLRAQAARSGCYQSPQPFHPHITLLRDASHTVAIPPPGFCWSFPVTSFALYASSYGQGRTRYAELQRWTLGE | not soluble
MSEPSNNSEKVPDEVQEIRDAENTFNSIQRCTTTLKGFQKSYDELKLQRKQSLQTIRQHEADIQQLEQGIRVHTAAFQLLRRLLSEIRRPNQILQEALQARHIEIEAFDDEAERLNVLIVEERRNLVELQAARKIRKSYLIVFQKQIAQLKAENKDEEATPAQEQMTKKSLKRRRDDEDDETGPSARRAPNSVGAF | soluble
MSEVEKTYCGFIAIVGRPNVGKSTLLNELLGQKISITSRKPQTTRHRIMGIHTEGPYQAIYVDTPGLHIEEKRAINRLMNRAASSSLGDVELVIFVVEGTHWTADDEMVVNKLRSLQCPVLLAINKVDNVTDKTKLLPHMQFLSQQMNFLDVVPISAEKGMNVDTIASIVRKHMPEAEHHFPEDYITDRSQRFMASEIIREKLMRFLGEELPYSVTVEIEQFVPNERGGYNIHGLILVEREGQKKMVIGNKGSKIKVIGTEARQDMERMFEAKVHLELWVKVKSGWADDERALRSLGYTDDLK | not soluble
MSFVPSEVRLDHTFLEWDKEWIFQRLPKTEIQIPREFEPDIETDAIPTIARQPADPNTTWNETGLDQIQMGPTINSTKN | not soluble
MSGAVPETPYHQRWLAFPDAVSSYRPLESRLAGTSRATADNRTPCTGRLGTPRVFLMATDDVSKAYSSPTFDAEALLGTVISAEDPDRVLIEPWATGVDGVILDVGSGTGRWTGHLASLGHQIEGLEPATRLVELARQTHPSVTFHHGTITDLSDSPKRWAGLLAWYSLIHMGPGELPDALVALRMAVEDGGGLLMSFFSGPSLEPMYHPVATAYRWPLPELAQALETAGFQVTSSHWDPRFPHAYLTAEASKQNLALEHHHHHH | not soluble
MSGEGDTTLKAICYKPGSLQLLDQRKLPLETIYLEIRDASDGWSAIQEMVVRGAPAIAIAAALSLAVEVFNFHGFDGSASDAVAFLENKLDYLVSSRPTAVNLADAALKLKHVIAKALATATEAKSIFKAYIEASEDMLEDDVVSNKAIGNFGLSLLRQQAKNPDKLSVLTHCNTGSLATAGYGTALGVIRALHTQGILERAYCTETRPFNQGSRLTAFELVHEKIPATLIADSAAAALMKDGRVDGVIVGADRVASNGDTANKIGTYSLALCAKHHGIPFYVAAPLTSVDLSLSSGKEIVIEERSPKELMHTHGGLGERIAAPGISVWNPAFDMTPAELIAGIITEKGVITKNGNDTFDISSFAKKITGNSSR | soluble
MSGGIDSTATCLMLQEQGYEIVGVTMRVWGDEPQDARELAARMGIEHYVADERIPFKETIVKNFIDEYKQGRTPNPCVMCNPLFKFRVLAEWADKLDCAYIATGHYSRLEERSGHIYIVAGDDDKKDQSYFLWRLGQDILKRCIFPLGDYTKIKVREYLAEKGYEAKSKEGESMEVCFIQGDYRDFLREQCPELDTEIGPGWFVNSEGVKLGQHKGAPYYTIGQRKGLEIALGKPAYVLKINPQKNTVMLGDAEQLQTEYMLAEQDRIVDEQELFSCENLAVRIRYRSRPIPCRVKRLEDGRLLVRFRETASAVAPGQSAVFYDGRRVLGGAFIASQRGIGLVIIENKDKL | not soluble
MSGGLLIESVIPGSIASELEIEPGDRLVAVNNRPLRDIVDYNFHADGEELLLEIVKPSGEVWEVEVERDDDEALGLVFAAPEPARCGNRCVFCFVHQLPKGLRRPLYVKDEDYRLSFLYGNYVTLSNIGEEDLQRIIEQRLSPLYISVHATDPALRERLLGRKGIIPILDIMTRLAEARITMHTQAVLCPGWNDGDALRRTVADLASLYPRVASLAIVPVGLTRHRDRLPLLEPVSADYARDFIYEWLPEAQRLADAFGEPFLFLADEFFIKADAPFPPLDFYGDFPQIENGVGMIPLFMDEADRVLRRARRMKPRTLTVVTGHSPYRYLADFLARLSARTGITFQPVAIPNRLFGESVTVTGLVAGRDILSELAGRNLGDGVLIPDVMLKEGEGVFLDDLTIGALEQGLGVPVVVVPSSPAGVMEGIRALRPLEHHHHHH | not soluble
MSGKISEEAMQEQAERAEYVKNIGIEYRFGCYEEKRPESCQLLGEYMEALQQNFQAAVAIFKKNCDENSYPKSCFKYGMYMLAGKVGDDASLSKMIRPMKIACDANIPQGCRYLSLVHWNGEKDRKADSEKAERYMRRACELEDGEACWLLSTWYMGNKEKFKTNAAGEAKELDRAELGSLSRDMDKSLQFAIRACEMDIPQSCANVSRMFKLGDGVPKDLDQAKKYADRAKEIMETLRSNDTNAGFTG | not soluble
MSGLLNFGVPKGSLENATVELFRKAGWQISISSRSYFPGVDDDEMNCKLIRPQEMGKYVERGTIDAGIAGRDWVRENESDVVEVCEMVYSKVSRRPARWVLVVTRDSAVQKPEDLHGATISTELVGFTKRYFAERNIPVTVEFSWGAT | not soluble
MSGLPCNERMDCTQCPKAVENSIHYTHNKKGFHLPPHKCETNILFFLLKGQILINSEEYAGTIINSGEFVLQAIASKVEILAMTDSEGILYTFDDPKAFCYDRYTYILKNVPPPLISEPLKIKPEIKLFLEGVASYLNADKICKELLEFKRKELYYLLAHYYTDYELSPVVHSLSQYTSSFEYFILKHHKQIKSVEEFAQLGGYSVTTFRRIFKAIFNEPAYEWMMKQRKESILYQLRYTDASISEICFGHGFESLSHFSNFCKKSFGDSPRNIRKKEKEEISPNT | not soluble
MSGSNTAISRRRLLQGAGAMWLLSVSQVSLAAVSQVVAVRVWPASSYTRVTVESNRQLKYKQFALSNPERVVVDIEDVNLNSVLKGMAAQIRADDPFIKSARVGQFDPQTVRMVFELKQNVKPQLFALAPVAGFKERLVMDLYPANAQDMQDPLLALLEDYNKGDLEKQVPPAQSGPQPGKAGRDRPIVIMLDPGHGGEDSGAVGKYKTREKDVVLQIARRLRSLIEKEGNMKVYMTRNEDIFIPLQVRVAKAQKQRADLFVSIHADAFTSRQPSGSSVFALSTKGATSTAAKYLAQTQNASDLIGGVSKSGDRYVDHTMFDMVQSLTIADSLKFGKAVLNKLGKINKLHKNQVEQAGFAVLKAPDIPSILVETAFISNVEEERKLKTATFQQEVAESILAGIKAYFADGATLARRG | soluble
